Reference: paper PMC6778065
Each block holds one substance with its values, some of them ahead of it.

Tests used:
[1] = target: BIN1 (endogenous, primary neurons) (UniProt O08839); test: proximity ligation assay, high-content screen; conditions: reference: DMSO-treated neurons; sites T231
[2] = target: Tau (endogenous, primary neurons) (UniProt P19332); test: proximity ligation assay, high-content screen; conditions: reference: DMSO-treated neurons; sites T348
[3] = target: Tau (endogenous, rat primary hippocampal neurons) (rat (endogenous in primary hippocampal neurons)) (UniProt P19332); test: proximity ligation; PLA in fixed rat primary hippocampal neuronal cultures (DIV7, 14, 21; lentiviral shBIN1 or overexpression at DIV8, read at DIV14; compound screen incl. Cyclosporin A and U0126 at DIV21); primary antibodies BIN1-99D (mouse) and Tau (rabbit); PLA volume or PLA:Tau ratio
Chain of Tau (endogenous, rat primary hippocampal neurons) (rat (endogenous in primary hippocampal neurons)) (P19332 other isoform, or with tags, fused parts or gaps): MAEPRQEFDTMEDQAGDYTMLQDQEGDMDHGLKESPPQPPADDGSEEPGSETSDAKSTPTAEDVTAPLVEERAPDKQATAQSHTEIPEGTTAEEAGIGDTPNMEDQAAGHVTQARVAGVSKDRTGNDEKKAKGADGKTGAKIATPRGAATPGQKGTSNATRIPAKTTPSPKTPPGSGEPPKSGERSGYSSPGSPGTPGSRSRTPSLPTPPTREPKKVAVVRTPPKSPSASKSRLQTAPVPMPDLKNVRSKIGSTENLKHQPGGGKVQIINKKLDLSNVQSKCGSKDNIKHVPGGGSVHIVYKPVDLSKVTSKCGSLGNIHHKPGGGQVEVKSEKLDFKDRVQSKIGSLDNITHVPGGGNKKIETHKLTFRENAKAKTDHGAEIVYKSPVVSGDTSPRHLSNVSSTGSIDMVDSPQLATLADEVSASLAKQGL

Chain of BIN1iso1 phosphomimetic T348E, overexpressed in primary neurons (O08539 whole entry, stated change not applied): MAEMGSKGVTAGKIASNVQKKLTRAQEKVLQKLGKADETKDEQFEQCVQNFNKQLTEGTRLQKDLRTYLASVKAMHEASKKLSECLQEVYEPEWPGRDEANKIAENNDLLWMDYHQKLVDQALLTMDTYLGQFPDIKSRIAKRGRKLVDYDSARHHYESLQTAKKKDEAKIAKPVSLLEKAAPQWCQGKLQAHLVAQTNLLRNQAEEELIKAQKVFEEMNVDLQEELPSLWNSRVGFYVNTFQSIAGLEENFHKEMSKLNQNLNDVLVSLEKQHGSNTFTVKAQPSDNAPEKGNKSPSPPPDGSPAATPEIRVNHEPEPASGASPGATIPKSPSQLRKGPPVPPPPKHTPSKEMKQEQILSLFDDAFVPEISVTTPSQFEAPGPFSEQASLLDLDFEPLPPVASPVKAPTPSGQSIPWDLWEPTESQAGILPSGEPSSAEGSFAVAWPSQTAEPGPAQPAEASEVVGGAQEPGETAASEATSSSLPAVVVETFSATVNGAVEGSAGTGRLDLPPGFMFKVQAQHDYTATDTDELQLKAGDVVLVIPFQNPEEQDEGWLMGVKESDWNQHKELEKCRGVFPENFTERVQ

- other: percent decrease of PLA:Tau ratio [1]: 36.2%
Substance: Tau (endogenous, primary neurons) (from UniProt P19332) U0126-treated neurons (MEK inhibitor)

- other: percent increase of PLA:Tau ratio [2]: 42.6%
Substance: BIN1 (endogenous, primary neurons) (from UniProt O08839) Cyclosporin A-treated neurons (calcineurin inhibitor)

- fold PLA volume against BIN1iso1 (after normalization with BIN1 immunofluorescence) [3]: 2.1 fold
Substance: BIN1iso1 phosphomimetic T348E, overexpressed in primary neurons (from UniProt O08539-1 1-588) (natural protein)
